One block for each molecule: values may come before it.
Legend:
METTL15^70–407 [1] = target: T1, METTL15^70–407 (Homo sapiens, UniProt A6NJ78); experiment: isothermal titration calorimetry; format: binding
T1 construct: residues 70-407; N-terminal SUMO tag cleaved with ULP1; E. coli Rosetta (DE3)
T1 sequence (A6NJ78 70-407): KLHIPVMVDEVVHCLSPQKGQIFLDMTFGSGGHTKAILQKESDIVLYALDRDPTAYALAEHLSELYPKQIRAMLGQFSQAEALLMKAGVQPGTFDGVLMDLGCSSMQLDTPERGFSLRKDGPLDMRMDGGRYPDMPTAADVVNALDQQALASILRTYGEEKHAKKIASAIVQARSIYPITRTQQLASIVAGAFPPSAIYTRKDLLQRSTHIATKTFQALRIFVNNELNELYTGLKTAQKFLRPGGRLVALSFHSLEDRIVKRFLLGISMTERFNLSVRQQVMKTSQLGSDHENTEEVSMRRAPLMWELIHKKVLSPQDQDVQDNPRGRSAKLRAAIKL

METTL15^70–407 [2] = target: T2, METTL15^70–407 (Homo sapiens, UniProt A6NJ78, D119A); experiment: isothermal titration calorimetry; format: binding
T2 construct: residues 70-407; N-terminal SUMO tag cleaved with ULP1; E. coli Rosetta (DE3)
T2 sequence (A6NJ78 70-407 D119A): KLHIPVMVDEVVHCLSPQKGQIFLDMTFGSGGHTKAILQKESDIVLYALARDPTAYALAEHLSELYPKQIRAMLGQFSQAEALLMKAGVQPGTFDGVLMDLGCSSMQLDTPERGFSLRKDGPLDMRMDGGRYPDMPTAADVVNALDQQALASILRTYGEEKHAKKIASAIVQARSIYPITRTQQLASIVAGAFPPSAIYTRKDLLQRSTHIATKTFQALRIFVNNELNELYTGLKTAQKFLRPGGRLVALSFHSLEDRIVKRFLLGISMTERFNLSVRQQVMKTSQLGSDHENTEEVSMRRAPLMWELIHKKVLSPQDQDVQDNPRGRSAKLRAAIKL

[3] = target: T3, METTL15 WT;hsRBFA C-terminal helix (Homo sapiens;Homo sapiens, UniProt A6NJ78;Q8N0V3 70-407;226-260, |); experiment: fluorescence polarization; +hsRBFA 226-260; FP: dilution buffer B (50 mM Na2HPO4, 150 mM NaCl, pH 7.0), 20 C, 15 min incubation, 80 nM FAM-RNA stock mixed 1:1 (40 nM final); 1:1 binding model; details: protein: recombinant;recombinant, tags: SUMO tag removed (ULP1);GST tag removed (TEV), copies: 1;1, label: 5'-FAM
T3 sequence 1: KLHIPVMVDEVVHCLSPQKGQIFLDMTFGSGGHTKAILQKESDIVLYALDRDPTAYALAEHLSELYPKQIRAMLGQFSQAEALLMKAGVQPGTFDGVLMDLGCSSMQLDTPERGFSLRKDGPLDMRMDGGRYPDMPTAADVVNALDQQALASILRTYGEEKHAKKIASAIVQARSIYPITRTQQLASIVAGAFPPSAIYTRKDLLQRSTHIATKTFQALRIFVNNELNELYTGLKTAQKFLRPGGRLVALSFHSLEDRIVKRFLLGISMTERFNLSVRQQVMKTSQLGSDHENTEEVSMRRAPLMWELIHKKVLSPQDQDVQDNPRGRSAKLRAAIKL
T3 sequence 2: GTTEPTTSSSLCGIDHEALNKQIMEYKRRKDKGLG

[4] = target: T4, METTL15 F262A/P263A/K270A (Homo sapiens, UniProt A6NJ78 70-407, F262A;P263A;R270A); experiment: fluorescence polarization; FP: dilution buffer B (50 mM Na2HPO4, 150 mM NaCl, pH 7.0), 20 C, 15 min incubation, 80 nM FAM-RNA stock mixed 1:1 (40 nM final); 1:1 binding model; details: protein: recombinant; tags: SUMO tag removed (ULP1); label: 5'-FAM; hairpin
T4 sequence: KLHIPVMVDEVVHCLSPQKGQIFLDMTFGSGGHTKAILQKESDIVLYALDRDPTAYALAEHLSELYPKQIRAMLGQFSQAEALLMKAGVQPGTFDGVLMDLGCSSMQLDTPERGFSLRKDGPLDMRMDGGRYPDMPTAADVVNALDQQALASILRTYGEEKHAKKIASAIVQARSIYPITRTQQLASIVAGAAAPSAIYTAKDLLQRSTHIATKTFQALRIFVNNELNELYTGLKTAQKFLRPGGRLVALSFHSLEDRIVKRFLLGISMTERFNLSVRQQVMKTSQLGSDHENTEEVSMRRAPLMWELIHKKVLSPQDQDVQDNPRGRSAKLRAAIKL

[5] = target: T5, METTL15 R327A/K330A/R331A (Homo sapiens, UniProt A6NJ78 70-407, R327A;K330A;R331A); experiment: as above; details: protein: recombinant; tags: SUMO tag removed (ULP1); label: 5'-FAM; hairpin
T5 sequence: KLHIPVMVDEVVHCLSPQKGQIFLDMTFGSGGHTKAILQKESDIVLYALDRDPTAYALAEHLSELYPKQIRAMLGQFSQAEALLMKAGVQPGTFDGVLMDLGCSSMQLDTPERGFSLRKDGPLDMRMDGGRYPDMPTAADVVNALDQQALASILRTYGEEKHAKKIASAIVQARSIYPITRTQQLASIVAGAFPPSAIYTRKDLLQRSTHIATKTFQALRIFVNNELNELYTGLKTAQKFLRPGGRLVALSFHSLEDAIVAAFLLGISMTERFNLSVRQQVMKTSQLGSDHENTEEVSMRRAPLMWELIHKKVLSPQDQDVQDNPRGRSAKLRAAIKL

METTL15 K380A/K381A = target: T6, METTL15 K380A/K381A (Homo sapiens, UniProt A6NJ78 70-407, K380A;K381A); experiment: as above; details: protein: recombinant; tags: SUMO tag removed (ULP1); label: 5'-FAM; hairpin
T6 sequence: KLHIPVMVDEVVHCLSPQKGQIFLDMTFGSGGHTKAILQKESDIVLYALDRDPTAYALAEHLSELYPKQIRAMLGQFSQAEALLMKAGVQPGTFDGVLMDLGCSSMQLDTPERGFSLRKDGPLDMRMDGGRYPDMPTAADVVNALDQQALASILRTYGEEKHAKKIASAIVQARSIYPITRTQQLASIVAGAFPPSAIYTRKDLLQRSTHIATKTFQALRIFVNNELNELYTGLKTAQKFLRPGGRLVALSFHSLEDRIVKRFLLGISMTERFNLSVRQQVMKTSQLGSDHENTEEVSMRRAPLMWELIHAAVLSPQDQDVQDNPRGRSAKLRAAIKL

METTL15 WT = target: T7, METTL15 WT (Homo sapiens, UniProt A6NJ78 70-407); experiment: as above; details: protein: recombinant, tags: SUMO tag removed (ULP1), label: 5'-FAM
T7 sequence: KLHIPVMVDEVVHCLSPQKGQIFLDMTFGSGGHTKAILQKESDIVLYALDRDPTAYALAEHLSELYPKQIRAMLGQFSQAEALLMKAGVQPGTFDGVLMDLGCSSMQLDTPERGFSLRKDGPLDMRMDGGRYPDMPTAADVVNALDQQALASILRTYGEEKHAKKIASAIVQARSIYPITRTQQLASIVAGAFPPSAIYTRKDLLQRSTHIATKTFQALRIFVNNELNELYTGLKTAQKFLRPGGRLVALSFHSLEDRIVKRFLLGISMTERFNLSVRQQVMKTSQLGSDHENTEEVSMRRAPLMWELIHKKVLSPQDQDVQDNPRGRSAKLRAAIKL

[6] = target: T8, METTL15 H231A/K234A/F262A (Homo sapiens, UniProt A6NJ78 70-407, H231A;K234A;F262A); experiment: as above; details: protein: recombinant; tags: SUMO tag removed (ULP1); label: 5'-FAM; hairpin
T8 sequence: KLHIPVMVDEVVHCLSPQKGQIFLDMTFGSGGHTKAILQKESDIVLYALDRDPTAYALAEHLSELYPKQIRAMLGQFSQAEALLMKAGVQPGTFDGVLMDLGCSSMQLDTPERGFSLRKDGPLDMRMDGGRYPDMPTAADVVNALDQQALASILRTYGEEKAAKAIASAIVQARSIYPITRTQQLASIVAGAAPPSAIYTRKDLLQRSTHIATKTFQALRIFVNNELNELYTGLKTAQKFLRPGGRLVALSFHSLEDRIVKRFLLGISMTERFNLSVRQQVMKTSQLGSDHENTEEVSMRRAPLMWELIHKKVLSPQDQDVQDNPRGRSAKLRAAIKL

[7] = target: METTL15^70–407 (human METTL15, residues 70–407), wild type (human, UniProt A6NJ78 70-407); experiment: ITC; Microcal PEAQ-ITC, 20 °C, buffer B (50 mM Na2HPO4, 150 mM NaCl, pH 7.0); hsRBFA 600 μM and METTL15 40 μM; single binding site model; details: both partners purified
METTL15^70–407 D209A = METTL15^70–407 D209A (human, UniProt A6NJ78 70-407, D209A); experiment: as above; details: both partners purified
METTL15^70–407 N212A = METTL15^70–407 N212A (human, UniProt A6NJ78 70-407, N212A); experiment: as above; details: both partners purified

- Kd (METTL15^70–407 [1]): 2.99 ± 0.36 µM
- Kd (METTL15^70–407 [2]): 17.3 ± 0.31 µM
Molecule: C[S+](CC[C@H](N)C(=O)O)C[C@H]1O[C@@H](n2cnc3c(N)ncnc32)[C@H](O)[C@@H]1O (some centres unmarked) [SAM]

Molecule: CGACCGCCCGUAACGGUCG (structured_RNA) [5'-FAM-h44_dsRNA1]
- Kd ([3]; hairpin): 1.15 ± 0.08 µM
- binding result [4]: no binding
- Kd [5]: 1.03 ± 0.15 µM
- Kd (METTL15 K380A/K381A): 2.68 ± 0.29 µM
- Kd (METTL15 WT; hairpin): 1.1 ± 0.09 µM
- binding result [6]: no binding

Molecule: AAAAAAAAAAAAA (ssRNA) [5'-FAM-polyA13]
- Kd (METTL15 WT): 0.61 ± 0.11 µM

Molecule: CACACCGCCCGUCAC (ssRNA) [5'-FAM-h44_ssRNA3]
- Kd [3]: 1.76 ± 0.16 µM
- Kd (METTL15 WT): 2.2 ± 0.33 µM

Molecule: CGACACCGCCCGUAACGGUGUCG (structured_RNA) [5'-FAM-h44_dsRNA4]
- Kd (METTL15 WT; hairpin): 2.33 ± 0.13 µM

Molecule: CGACCGGAAGCGGUCG (structured_RNA) [5'-FAM-h44_dsRNA2]
- Kd (METTL15 WT; hairpin): 0.77 ± 0.05 µM

- Kd [7]: 0.41 µM
- dH [7]: -11.5 ± 0.2 kcal/mol
Molecule: GTTEPTTSSSLCGIDHEALNKAIMEYKRRKDKGLG (domain or fragment, human, UniProt Q8N0V3 226-260, looked up) [hsRBFA^226–260 Q247A]

- Kd [7]: 19.6 µM
- dH [7]: -17.2 ± 3.1 kcal/mol
Molecule: GTTEPTTSSSLCGIDHEALNKQIMEYARRKDKGLG (domain or fragment, human, UniProt Q8N0V3 226-260, looked up) [hsRBFA^226–260 K252A]

- Kd (METTL15^70–407 D209A): 7.94 µM
- dH (METTL15^70–407 D209A): -7.43 ± 0.32 kcal/mol
- Kd (METTL15^70–407 N212A): 1.12 µM
- dH (METTL15^70–407 N212A): -9.5 ± 0.34 kcal/mol
Molecule: GTTEPTTSSSLCGIDHEALNKQIMEYKRRKDKGLG (domain or fragment, UniProt Q8N0V3 226-260, looked up) [hsRBFA^226–260 (human hsRBFA, residues 226–260), wild type]

- Kd [7]: 0.61 µM
- dH [7]: -10.6 ± 0.2 kcal/mol
Molecule: GTTEPTTSSSLCGIDHEALAKQIMEYKRRKDKGLG (domain or fragment, human, UniProt Q8N0V3 226-260, looked up) [hsRBFA^226–260 N245A]

From paper PMC10828496 (Cell Discovery, 2024)
